From patent publication US20240270857A1 (CHIA TAI TIANQING PHARMACEUTICAL GROUP, published 2024)

T1: CynoIL36R-ECD mFc recombinant protein (cynomolgus monkey)
T1 construct: Made in ExpiCHO, purified on Protein A; also called cynomolgus IL-36R extracellular region with mouse antibody heavy chain Fc
T1 chain: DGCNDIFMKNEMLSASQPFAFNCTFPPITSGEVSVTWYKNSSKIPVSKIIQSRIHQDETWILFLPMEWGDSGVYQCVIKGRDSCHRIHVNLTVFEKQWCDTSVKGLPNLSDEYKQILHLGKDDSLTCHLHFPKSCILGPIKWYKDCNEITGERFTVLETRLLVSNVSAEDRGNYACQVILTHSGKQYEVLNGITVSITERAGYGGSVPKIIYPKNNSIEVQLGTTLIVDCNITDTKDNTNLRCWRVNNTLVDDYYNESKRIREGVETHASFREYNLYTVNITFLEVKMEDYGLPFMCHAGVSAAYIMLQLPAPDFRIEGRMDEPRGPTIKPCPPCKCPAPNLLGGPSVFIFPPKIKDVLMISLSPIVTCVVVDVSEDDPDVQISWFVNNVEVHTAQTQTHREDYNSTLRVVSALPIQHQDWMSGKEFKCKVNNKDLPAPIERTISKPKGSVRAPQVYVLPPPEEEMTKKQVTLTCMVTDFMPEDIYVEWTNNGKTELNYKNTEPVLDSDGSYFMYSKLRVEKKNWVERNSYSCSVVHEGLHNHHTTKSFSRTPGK

T2: IL-36R naturally expressed on OVCAR8 cells and on normal human epidermal keratinocytes (NHK cells) (human, UniProt Q9HB29 20-575)
T2 sequence (looked up): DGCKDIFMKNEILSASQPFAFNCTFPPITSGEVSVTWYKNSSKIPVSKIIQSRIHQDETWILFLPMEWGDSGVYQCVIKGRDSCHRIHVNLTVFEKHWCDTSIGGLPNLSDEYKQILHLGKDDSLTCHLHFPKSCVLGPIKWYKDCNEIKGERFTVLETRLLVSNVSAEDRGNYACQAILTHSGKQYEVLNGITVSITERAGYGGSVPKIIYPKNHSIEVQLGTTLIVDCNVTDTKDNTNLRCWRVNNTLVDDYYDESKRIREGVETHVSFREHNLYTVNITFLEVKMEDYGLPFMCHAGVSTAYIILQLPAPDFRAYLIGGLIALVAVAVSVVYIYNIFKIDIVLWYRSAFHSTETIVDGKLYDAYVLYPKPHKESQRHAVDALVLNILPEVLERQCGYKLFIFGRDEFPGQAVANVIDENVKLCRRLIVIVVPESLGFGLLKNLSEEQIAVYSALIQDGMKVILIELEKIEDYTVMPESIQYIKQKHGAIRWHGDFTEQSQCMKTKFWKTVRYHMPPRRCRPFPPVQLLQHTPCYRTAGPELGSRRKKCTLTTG

T3: cynomolgus IL-36R overexpressed on 293T-CynoIL36R-NFκB cells (cynomolgus monkey)
T3 chain: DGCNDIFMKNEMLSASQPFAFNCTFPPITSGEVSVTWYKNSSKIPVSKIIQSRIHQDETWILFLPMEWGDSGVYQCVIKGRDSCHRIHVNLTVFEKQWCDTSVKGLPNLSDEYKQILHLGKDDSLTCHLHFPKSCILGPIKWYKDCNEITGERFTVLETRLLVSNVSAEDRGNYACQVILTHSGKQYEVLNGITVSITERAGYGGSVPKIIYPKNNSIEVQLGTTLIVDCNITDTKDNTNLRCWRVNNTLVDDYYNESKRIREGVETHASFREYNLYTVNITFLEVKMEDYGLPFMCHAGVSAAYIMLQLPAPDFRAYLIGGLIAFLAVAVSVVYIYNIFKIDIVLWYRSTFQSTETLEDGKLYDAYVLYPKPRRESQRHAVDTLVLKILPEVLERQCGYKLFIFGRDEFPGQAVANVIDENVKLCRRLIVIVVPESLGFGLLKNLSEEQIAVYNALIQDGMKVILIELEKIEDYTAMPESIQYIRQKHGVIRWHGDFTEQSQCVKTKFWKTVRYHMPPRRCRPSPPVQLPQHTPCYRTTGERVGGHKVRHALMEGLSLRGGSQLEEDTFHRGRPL

B1: chimeric 72C1 antibody (antibody, human IgG4 S228P, kappa)
heavy: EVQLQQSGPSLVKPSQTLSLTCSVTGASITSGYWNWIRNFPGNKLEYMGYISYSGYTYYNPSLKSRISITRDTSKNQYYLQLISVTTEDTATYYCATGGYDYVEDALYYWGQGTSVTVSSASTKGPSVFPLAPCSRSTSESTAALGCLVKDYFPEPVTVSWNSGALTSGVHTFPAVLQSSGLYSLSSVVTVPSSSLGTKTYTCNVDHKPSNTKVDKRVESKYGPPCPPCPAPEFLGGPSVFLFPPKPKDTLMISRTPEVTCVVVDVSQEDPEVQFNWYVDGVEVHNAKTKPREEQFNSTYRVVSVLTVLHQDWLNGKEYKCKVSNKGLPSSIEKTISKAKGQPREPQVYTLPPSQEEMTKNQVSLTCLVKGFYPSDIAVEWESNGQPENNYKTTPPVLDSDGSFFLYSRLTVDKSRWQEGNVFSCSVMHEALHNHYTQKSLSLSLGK
light: EILLTQSPAIMSATLGEKVTMSCRASSNVRYMYWYQLKSGASPKLWIYLTSNLASGVPARFSGSGSGTSYSLTISSVEAEDAATYFCQQFTTSPYTFGGGTKLEIKRTVAAPSVFIFPPSDEQLKSGTASVVCLLNNFYPREAKVQWKVDNALQSGNSQESVTEQDSKDSTYSLSSTLTLSKADYEKHKVYACEVTHQGLSSPVTKSFNRGEC
notes: Mouse variable regions on human IgG4 / kappa; also called xi72C1
B2: hz72C1-1.1 (antibody, human IgG4 S228P, kappa)
heavy: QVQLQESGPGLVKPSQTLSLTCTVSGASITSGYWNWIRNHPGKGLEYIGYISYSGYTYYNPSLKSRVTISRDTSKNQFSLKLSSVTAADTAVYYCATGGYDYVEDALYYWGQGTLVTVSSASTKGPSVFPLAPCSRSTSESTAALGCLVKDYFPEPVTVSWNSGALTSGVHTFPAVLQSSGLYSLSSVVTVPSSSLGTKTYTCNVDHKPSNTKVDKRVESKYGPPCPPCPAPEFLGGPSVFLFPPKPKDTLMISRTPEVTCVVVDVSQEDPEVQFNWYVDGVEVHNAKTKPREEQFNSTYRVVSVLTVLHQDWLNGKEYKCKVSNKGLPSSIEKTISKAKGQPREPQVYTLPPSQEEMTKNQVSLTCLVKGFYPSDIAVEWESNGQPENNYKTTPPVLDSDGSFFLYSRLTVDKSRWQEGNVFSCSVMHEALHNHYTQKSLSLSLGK
light: DIQMTQSPSSLSASVGDRVTITCRASSNVRYMYWYQQKPGKAPKLWIYLTSNLASGVPSRFSGSGSGTSYTLTISSLQPEDFATYYCQQFTTSPYTFGQGTKLEIKRTVAAPSVFIFPPSDEQLKSGTASVVCLLNNFYPREAKVQWKVDNALQSGNSQESVTEQDSKDSTYSLSSTLTLSKADYEKHKVYACEVTHQGLSSPVTKSFNRGEC
notes: Humanized, human IgG4 / kappa; also called humanized 72C1 antibody 1.1
B3: hz72C1-1.3 (antibody, human IgG4 S228P, kappa)
heavy: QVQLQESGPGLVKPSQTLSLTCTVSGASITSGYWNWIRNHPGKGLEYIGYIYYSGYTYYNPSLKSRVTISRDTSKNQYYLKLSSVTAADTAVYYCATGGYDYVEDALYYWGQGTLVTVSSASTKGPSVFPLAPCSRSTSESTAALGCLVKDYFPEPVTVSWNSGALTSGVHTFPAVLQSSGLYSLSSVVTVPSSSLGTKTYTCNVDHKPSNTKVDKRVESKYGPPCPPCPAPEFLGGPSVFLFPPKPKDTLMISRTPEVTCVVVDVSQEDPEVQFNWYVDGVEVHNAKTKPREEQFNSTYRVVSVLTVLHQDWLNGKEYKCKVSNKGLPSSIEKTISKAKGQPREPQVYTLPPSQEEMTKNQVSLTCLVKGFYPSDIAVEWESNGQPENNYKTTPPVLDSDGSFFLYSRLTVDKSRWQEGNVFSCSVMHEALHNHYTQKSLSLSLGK
light: B2 light
notes: Humanized, human IgG4 / kappa
B4: BI655130 (antibody, human IgG1, kappa, L234A L235A)
heavy: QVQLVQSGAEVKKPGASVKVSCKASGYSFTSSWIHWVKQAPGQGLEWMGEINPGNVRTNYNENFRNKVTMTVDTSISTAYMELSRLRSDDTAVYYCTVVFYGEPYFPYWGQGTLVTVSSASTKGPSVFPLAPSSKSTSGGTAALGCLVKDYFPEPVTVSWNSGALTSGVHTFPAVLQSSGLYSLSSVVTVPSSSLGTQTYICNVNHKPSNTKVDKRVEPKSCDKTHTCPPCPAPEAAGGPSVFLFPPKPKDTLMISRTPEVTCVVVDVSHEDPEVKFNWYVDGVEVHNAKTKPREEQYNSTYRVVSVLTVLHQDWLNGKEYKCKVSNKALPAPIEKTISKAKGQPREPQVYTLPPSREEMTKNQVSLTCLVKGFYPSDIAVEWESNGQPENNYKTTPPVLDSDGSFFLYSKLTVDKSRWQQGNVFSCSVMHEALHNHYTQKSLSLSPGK
light: QIVLTQSPGTLSLSPGERATMTCTASSSVSSSYFHWYQQKPGQAPRLWIYRTSRLASGVPDRFSGSGSGTDFTLTISRLEPEDAATYYCHQFHRSPLTFGAGTKLEIKRTVAAPSVFIFPPSDEQLKSGTASVVCLLNNFYPREAKVQWKVDNALQSGNSQESVTEQDSKDSTYSLSSTLTLSKADYEKHKVYACEVTHQGLSSPVTKSFNRGEC
notes: also called Spesolimab
B5: chimeric 84C4 antibody (antibody, human IgG4 S228P, kappa)
heavy: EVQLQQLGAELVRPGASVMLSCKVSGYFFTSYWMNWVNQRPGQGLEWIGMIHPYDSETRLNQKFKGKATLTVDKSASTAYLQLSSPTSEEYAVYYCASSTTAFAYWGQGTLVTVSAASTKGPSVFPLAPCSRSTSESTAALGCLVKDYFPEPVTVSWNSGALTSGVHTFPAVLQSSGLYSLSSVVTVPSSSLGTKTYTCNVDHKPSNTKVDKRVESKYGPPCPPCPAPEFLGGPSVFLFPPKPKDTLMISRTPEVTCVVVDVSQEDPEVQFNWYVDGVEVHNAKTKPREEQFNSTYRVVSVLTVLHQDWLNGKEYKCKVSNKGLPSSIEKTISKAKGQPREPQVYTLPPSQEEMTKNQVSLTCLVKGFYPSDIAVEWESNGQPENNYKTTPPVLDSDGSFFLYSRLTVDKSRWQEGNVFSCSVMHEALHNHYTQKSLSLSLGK
light: DILMTQSPSSLSASLGERVSLTCRASQDIGNALNWLQQAPDGTIKRLIYATSSLDPGVPKRFSGSRSGSDYSLTISSLASEDFVYYYCLQYASSPYTFGGGTKLEIKRTVAAPSVFIFPPSDEQLKSGTASVVCLLNNFYPREAKVQWKVDNALQSGNSQESVTEQDSKDSTYSLSSTLTLSKADYEKHKVYACEVTHQGLSSPVTKSFNRGEC
notes: Mouse variable regions on human IgG4 / kappa; also called xi84C4

Target: T1, CynoIL36R-ECD mFc recombinant protein
Assay: BLI (ForteBio Octet), antibody on ProA sensor, 1:1 model
Description: The affinity of anti-IL-36R antibodies to CynoIL36R-ECD mFc and human IL-1Rrp2/IL-IR6 protein, His Tag (ACROBiosystems, IL2-H52H6) was measured by a ForteBio molecular interaction instrument. […] And then the biosensor was used to bind CynoIL36R-ECD mFc or human IL-1Rrp2/IL-1R6 protein, His Tag which was diluted by a gradient (the initial concentration was 200 nM, 2-fold gradient dilution), the response signals were detected in real time using a Fortebio molecular interaction instrument (SARTORIUS, octet red 96e), and association and dissociation curves were obtained. After the completion of dissociation in each cycle, the biosensor was regenerated for the next capture; the procedure was repeated until the affinity of the different anti-IL-36R antibodies for IL-36R was determined. The resulting data were analyzed by Fortebio Data Analysis 11.0 software in a 1:1 (Langmuir) binding model to determine kₐ (kₒₙ) and kd (koff) values, and the dissociation constant KD was calculated by KD=kd/kₐ. The detection method essentially followed the manufacturer's recommendations, and more information could be found at www.fortebio.com.
Affinity, binding and blocking assays for humanized antibodies hz72C1-1.1, hz72C1-1.2, hz72C1-1.3, hz72C1-2.1, hz72C1-2.2 and hz72C1-2.3 as well as hz84C4-1.1, hz84C4-1.2, hz84C4-1.3, hz84C4-1.4, hz84C4-1.5, hz84C4-2.1, hz84C4-2.2, hz84C4-2.3, hz84C4-2.4 and hz84C4-2.5 were performed according to the methods of Example 4, Example 5. Example 6, Example 7 and Example 8.

Binder | Kd [nM] | koff [s⁻¹] | kon [M⁻¹ s⁻¹]
B1 | 0.352 | 9.04e-06 | 25700
B2 | 0.66 | 1.51e-05 | 22800
B3 | 0.445 | 9.42e-06 | 21200
B4 | 2.46 | 7.26e-05 | 29500

target: T2, IL-36R naturally expressed on OVCAR8 …; assay: cell-based or functional assay

Binder | IC50; IL-8 production of NHK cells stimulated with hIL36γ, inhibition rate % [nM]
B5 | 0.125
B1 | 0.0486
B4 | 0.0387

Target: T3, cynomolgus IL-36R overexpressed on …
Assay: cell-based or functional assay

Binder | IC50 (M); hIL36α; NFκB-luciferase [M] | IC50 (M); hIL36β; NFκB-luciferase [M] | IC50 (M); hIL36γ; NFκB-luciferase [M] | Maximum inhibition rate %; hIL36α; NFκB-luciferase [%] | Maximum inhibition rate %; hIL36β; NFκB-luciferase [%] | Maximum inhibition rate %; hIL36γ; NFκB-luciferase [%]
B2 | 3.15e-09 | 3.09e-09 | 1.66e-09 | 101 | 100 | 104
B3 | 3.13e-09 | 2.7e-09 | 1.65e-09 | 101 | 101 | 103
B4 | 2.77e-08 | 5.63e-08 | 1.19e-08 | 49.1 | 60.8 | 83.1

Target: T3, cynomolgus IL-36R overexpressed on …
Assay: FACS on 293T-CynoIL36R-NFκB cells, ratio of MFI to background MFI
Description: After the cells was washed with PBS, the cells were resuspended with 100 μL of PBS and then the fluorescence signal was detected using a flow cytometer (BD, Accuri C6). […] The ratio was the ratio of mean fluorescence intensity (MFI) of the experimental group/the background MFI, and the resulting data were analyzed using GraphPad Prism.

Binder | EC50 [nM]
B5 | 36.6
B1 | 8.96
B4 | 9.64

target: T2, IL-36R naturally expressed on OVCAR8 …; assay: cell-based or functional assay; remark: another data set of the same source

Binder | IC50; IL-8 production of NHK cells stimulated with hIL36β, inhibition rate % [nM]
B5 | 0.848
B1 | 0.474
B4 | 0.248
